Values of other authors in publication PMC10178479.

Target: Mint2 (Homo sapiens) (UniProt Q99767)
Sequence of UniProt Q99767 (Q99767 whole entry): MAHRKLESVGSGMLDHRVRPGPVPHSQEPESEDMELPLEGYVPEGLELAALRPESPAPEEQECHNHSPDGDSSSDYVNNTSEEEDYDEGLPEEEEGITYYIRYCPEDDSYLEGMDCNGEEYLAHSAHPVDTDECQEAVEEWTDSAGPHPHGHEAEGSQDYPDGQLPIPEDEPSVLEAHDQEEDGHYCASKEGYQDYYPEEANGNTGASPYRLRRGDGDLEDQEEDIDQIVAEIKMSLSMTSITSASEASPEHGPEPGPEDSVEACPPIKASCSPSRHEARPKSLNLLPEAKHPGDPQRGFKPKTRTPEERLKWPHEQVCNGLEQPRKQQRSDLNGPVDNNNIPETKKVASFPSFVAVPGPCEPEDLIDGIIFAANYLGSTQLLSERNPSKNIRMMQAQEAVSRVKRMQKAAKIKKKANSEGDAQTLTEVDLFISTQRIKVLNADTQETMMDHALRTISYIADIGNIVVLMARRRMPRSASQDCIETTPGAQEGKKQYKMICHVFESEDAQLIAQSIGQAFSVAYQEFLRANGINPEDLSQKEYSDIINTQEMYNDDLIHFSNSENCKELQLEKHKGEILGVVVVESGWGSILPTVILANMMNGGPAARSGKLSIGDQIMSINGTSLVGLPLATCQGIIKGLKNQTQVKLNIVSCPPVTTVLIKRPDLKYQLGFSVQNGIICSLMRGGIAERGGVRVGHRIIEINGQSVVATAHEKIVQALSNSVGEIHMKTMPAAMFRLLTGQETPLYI

Ki: 4 µM
Substance: APP peptide (APPWT)
